This passage reports Kd results from PMC7884259.

The target of this assay is ATAD2B bromodomain (residues 953–1085) (human) (UniProt Q9ULI0). Description: ITC.
Chain of ATAD2B bromodomain (residues 953–1085) (human) (Q9ULI0 953-1085): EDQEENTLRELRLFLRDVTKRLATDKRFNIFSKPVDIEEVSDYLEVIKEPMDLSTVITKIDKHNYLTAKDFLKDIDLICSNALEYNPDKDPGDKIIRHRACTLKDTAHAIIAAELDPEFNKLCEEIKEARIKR

H4K12acK16ac (res 10–20) (peptide) showed a Kd of 214 µM. In turn, H4K12ac (res 4–17) (peptide) showed a Kd of 50.5 µM.
